Target: HLA-DR on BJAB cells (human (endogenous in BJAB))
Assay: flow cytometry on cells; full antibody titration of purified IgGs on HLA-DR-expressing BJAB cells, Fc Block, 1 h at 4 °C, detected with AF488 goat anti-human IgG Fcγ; also after storage of the IgGs at -20, 4 or 40 °C for up to 4 weeks

B1: humanized 44H10 version 17 IgG (antibody, V domains shown)
VH: QVTLKESGPVLVKPTETLTLTCTVSGFSLTSYGVHWIRQPPGKALEWLAVIWAGGSISYSTSLMSRLTISKDTSKSQVVLTMTNMDPVDTATYYCARAYGDYVHYAMDYWGQGTLVTVSS
VL: DIQMTQSPSSLSASVGDRVTITCRASQEISGYLTWLQQKPGKAPKLLIYAASTLDSGVPSRFSGSGSGTDFTLTISSLQPEDFATYYCLQYTNYPLTFGQGTKLEIK
For B1, which fold difference in EC50 against parental 44H10 is on record?
The fold difference in EC50 against parental 44H10 was > 50 fold.

Source: publication PMC11270187
